Test results reported in the Immune Epitope Database (IEDB).

How the values were obtained:
HLA-C*05:01 = assay: IEDB peptide-MHC binding, purified MHC/direct/fluorescence; filed as Kd, often an IC50 or EC50 that approximates it; ≥ and ≤ were set here for values at or beyond the usual limits of such assays
HLA-C*07:02 = assay: as above; conditions: source organism: Yersinia pestis CO92
HLA-C*08:02 = assay: as above; conditions: source organism: Yersinia pestis CO92
HLA-A*32:07 = assay: IEDB peptide-MHC binding, purified MHC/competitive/fluorescence; filed as Kd, often an IC50 or EC50 that approximates it; ≥ and ≤ were set here for values at or beyond the usual limits of such assays
HLA-A*32:15 = assay: as above
HLA-A*68:23 = assay: as above
HLA-B*15:42 = assay: as above
HLA-B*27:20 = assay: as above
HLA-B*39:01 = assay: as above
HLA-B*40:13 = assay: as above
HLA-B*45:06 = assay: as above
HLA-B*83:01 = assay: as above
HLA-C*06:02 [1] = assay: as above
HLA-C*14:02 [2] = assay: as above
HLA-C*03:03 = assay: IEDB peptide-MHC binding, purified MHC/direct/fluorescence; filed as Kd, often an IC50 or EC50 that approximates it; ≥ and ≤ were set here for values at or beyond the usual limits of such assays; conditions: source organism: Mycobacterium tuberculosis F11
HLA-C*12:03 = assay: as above; conditions: source organism: Mycobacterium tuberculosis F11
HLA-A*03:19 = assay: IEDB peptide-MHC binding, purified MHC/competitive/fluorescence; filed as Kd, often an IC50 or EC50 that approximates it; ≥ and ≤ were set here for values at or beyond the usual limits of such assays
HLA-C*04:01 = assay: IEDB peptide-MHC binding, purified MHC/direct/fluorescence; filed as Kd, often an IC50 or EC50 that approximates it; ≥ and ≤ were set here for values at or beyond the usual limits of such assays; conditions: source organism: SARS-CoV1
HLA-C*06:02 [3] = assay: as above
HLA-C*14:02 [4] = assay: as above; conditions: source organism: Yersinia pestis Nepal516
HLA-C*15:02 = assay: as above; conditions: source organism: Yersinia pestis Nepal516
HLA-A*02:01 = assay: IEDB peptide-MHC binding, purified MHC/competitive/fluorescence; filed as Kd, often an IC50 or EC50 that approximates it; ≥ and ≤ were set here for values at or beyond the usual limits of such assays
HLA-A*31:01 = assay: as above; conditions: source organism: Yersinia pestis Nepal516
HLA-B*27:05 = assay: as above; conditions: source organism: Yersinia pestis Nepal516
HLA-A*02:06 = assay: as above; conditions: source organism: Brucella suis 1330
[5] = source organism: Yersinia pestis CO92
[6] = source organism: Mycobacterium tuberculosis F11
[7] = source organism: Yersinia pestis Nepal516
[8] = source organism: Brucella suis 1330

YSFSRAYTL
Kd (HLA-C*05:01; [5]): ≥ 20000 nM
Kd (HLA-C*07:02): 347 nM
Kd (HLA-C*08:02): ≥ 20 µM
Kd (HLA-A*32:07; [5]): 164 nM
Kd (HLA-A*32:15; [5]): 23.7 nM
Kd (HLA-A*68:23; [5]): 9.3 nM
Kd (HLA-B*15:42; [5]): ≥ 5 µM
Kd (HLA-B*27:20; [5]): 31.5 nM
Kd (HLA-B*39:01; [5]): 3.9 nM
Kd (HLA-B*40:13; [5]): 6.3 nM
Kd (HLA-B*45:06; [5]): ≥ 5 µM
Kd (HLA-B*83:01; [5]): ≥ 5 µM
Kd (HLA-C*06:02 [1]; [5]): 47.8 nM
Kd (HLA-C*14:02 [2]; [5]): 125 nM

FVAATGRPL
Kd (HLA-C*03:03): ≤ 1 nM
Kd (HLA-C*12:03): 95 nM
Kd (HLA-B*15:42; [6]): ≥ 5 µM
Kd (HLA-B*45:06; [6]): ≥ 5 µM
Kd (HLA-C*14:02 [2]; [6]): 30.2 nM

GVPKTHLEL
Kd (HLA-A*03:19; source organism: Mus musculus): 3230 nM
Kd (HLA-A*32:15; source organism: Mus musculus): ≥ 20000 nM
Kd (HLA-A*68:23; source organism: Mus musculus): 23.1 nM
Kd (HLA-B*15:42; source organism: Mus musculus): ≥ 5 µM
Kd (HLA-B*45:06; source organism: Mus musculus): ≥ 5 µM
Kd (HLA-B*83:01; source organism: Mus musculus): ≥ 5 µM
Kd (HLA-C*06:02 [1]; source organism: Mus musculus): 1350 nM

SYCNGVREL
Kd (HLA-C*04:01): ≥ 20 µM
Kd (HLA-C*06:02 [3]; source organism: SARS-CoV1): 133 nM

RAMRMVYYL
Kd (HLA-C*05:01; [7]): 124 nM
Kd (HLA-C*06:02 [3]; [7]): 798 nM
Kd (HLA-C*14:02 [4]): 960 nM
Kd (HLA-C*15:02): 34 nM
Kd (HLA-A*02:01; [7]): 0.8 nM
Kd (HLA-A*03:19; [7]): 206 nM
Kd (HLA-A*31:01): 4 nM
Kd (HLA-A*32:07; [7]): 77.6 nM
Kd (HLA-B*15:42; [7]): ≥ 5 µM
Kd (HLA-B*27:05): 157 nM
Kd (HLA-B*27:20; [7]): 14 nM
Kd (HLA-B*39:01; [7]): 421 nM
Kd (HLA-B*45:06; [7]): ≥ 5 µM
Kd (HLA-B*83:01; [7]): ≥ 5 µM

RQNAPFEPI
Kd (HLA-A*02:01; [8]): 83.4 nM
Kd (HLA-A*02:06): 1.2 nM
Kd (HLA-A*32:07; [8]): 11.9 nM
Kd (HLA-B*15:42; [8]): ≥ 5 µM
Kd (HLA-B*27:20; [8]): 1.1 nM
Kd (HLA-B*40:13; [8]): 53.6 nM
Kd (HLA-B*45:06; [8]): ≥ 5 µM
Kd (HLA-B*83:01; [8]): ≥ 5 µM
